Data set [1] concerns copper sulfate induced zebrafish inflammation model. Nature of the data set: anti-inflammatory effect on copper sulfate-induced inflammation. The conditions noted are these: 5 hours; for Inflammation resolution rate (%): copper sulfate. It is filed as in vivo. Further details: numbers of neutrophils (mean ± SE): dose or concentration left out as unconfirmed. Here is the method: The specific method was described by d'Alencon et al., BMCBiology.
The images were analyzed by Nikon NIS-ElementsD3.10 advanced image processing software.

In data set [2] the test system is tail amputation injury zebrafish inflammation. Nature of the data set: anti-inflammatory effect on inflammation of tail amputation injury. The conditions noted are these: 5 hours.
Description: Model making: The model of zebrafish inflammation was established by mechanical amputation of tail fins of transgenic neutrophil fluorescent zebrafish.
The transgenic neutrophil fluorescent zebrafish were randomly selected and put in the six-well plate after mechanical amputation of tail fins, 30 per well. […] The normal control group and model control group were set at the same time. […] Image analysis was performed with Nikon NIS-Elements D3.10 advanced image processing software, the number of neutrophils (N) in zebrafish was calculated, and quantitatively analyzed. The formula of the rate of inflammation resolution was as follows:
Data set [3] relates to LPS-induced zebrafish inflammation model. Put plainly: anti-inflammatory effect on LPS-induced inflammation. The conditions noted are these: 5 hours; for numbers of neutrophils (mean ± SE): model control 17.8.
Description: The zebrafish inflammation model was established by treatment of transgenic neutrophil fluorescent zebrafish through LPS injection.
The zebrafishes were randomly selected and put in the six-well plate, 30 per well. […] The normal control group and model control group were set at the same time. […] Image analysis was performed with Nikon NIS-Elements D3.10 advanced image processing software, the number of neutrophils (N) in zebrafish was calculated, and quantitatively analyzed. The formula of the rate of inflammation resolution was as follows:
Data set [4] concerns TNBS-induced colonitis zebrafish model. Put plainly: pathological analysis of intestinal tract tissue. It is filed as in vivo. The conditions noted are these: 15 μg/mL, 48 hours. The text has this:
The fixed zebrafish was observed under the microscope for the colonic tissue and photographed for histopathological analysis, as described in the experimental results.

The subject of data set [5] is zebrafish. Put plainly: maximum non-lethal concentration (MNLC), 5 h treatment. In kind it is in vivo. The conditions noted are these: 2000 μg/mL for 5 hours. Here is the method:
30 zebrafishes were treated in each experiment group. During the course of the experiment, the dead zebrafishes were counted and removed. After the M-type SOD treatment, the number of dead zebrafishes in each experiment group was counted, and MNLC was determined. […] Therefore, the concentration of 2000 μg/mL was selected as the maximum concentration in the evaluation of anti-inflammatory effect of SOD.

The conditions of data set [6]: 1 h.
Description: (§1) The enzyme activity of SOD was determined by pyrogallol autoxidation method.
Data set [7] can be described thus: stability of SOD at different pH. In kind it is physicochemical. The conditions noted are these: pH 12.
Description: as §1
Data set [8] relates to TNBS-induced colonitis zebrafish model. Put plainly: therapeutic efficiency on TNBS-induced colonitis (intestinal lumen area). The conditions noted are these: 48 hours, model control 197660, normal control 130711. It is filed as in vivo. Here is the method: (Please refer to A. Jemal, R. Siegel, J. Xu, et al. Ward. Clinicians, 2010, 277-300, and Intestinal Upregulation of Melanin-Concentrating Hormone in TNBS-Induced Enterocolitis in Adult Zebrafish. Plos One, 2013, 8(12):1524-1528).
Image analysis was performed by image analysis software, the area of zebrafish intestinal lumen was calculated, and quantitative analysis was carried out, and the statistical result was expressed with X±SE:
The therapeutic efficiency of the positive control group was calculated by replacing the treatment group in the above formula with the positive control group;

The subject of data set [9] is zebrafish. Nature of the data set: maximum non-lethal concentration (MNLC), 48 h treatment. In kind it is in vivo. The conditions noted are these: for Death rate (%) / Death (tail): 48 hours; for Death (tail): 30 zebrafish. Here is the method:
30 zebrafishes were treated in each experiment group;
During the experiment course, count dead zebrafish every day and remove dead zebrafish;

In data set [10] the test system is TNBS-induced colonitis zebrafish model. Nature of the data set: inflammation resolution of TNBS-induced colonitis (intestinal neutrophils). The conditions noted are these: intestinal tract, 48 hours, model control 9.4, normal control 1.6.
Description: Transgenic neutrophil fluorescent zebrafish of 3 days after fertilization was used to establish a zebrafish colonitis model after incubation for 48 h in water for fish containing a final concentration of 4.5 μM TNBS.
Model control group: TNBS-induced colonitis zebrafish model (model 2);
Positive control group: prednisone was added to water for fish at a final concentration of 15 μg/mL;
30 transgenic neutrophil fluorescent zebrafishes were treated in each experiment group for 48 hours;
The test system of data set [11] is pepsin.
Description: Preparation of simulated gastric fluid: in accordance with the standard of the Pharmacopoeia 2010, namely: take dilute hydrochloric acid 16.4 ml (dilute hydrochloric acid: diluted hydrochloric acid 234 ml with water up to 1000 ml. The HCl contained in the solution should be 9.5% to 10.5%), add about 800 ml of water and pepsin 10 g (Sinopharm, 20141209) and shake well, then add water up to 1000 ml.
as §1

“And” between values parts separate entries of the source, which are not always exact repeats. Equal entries are not always repeated. Marks after values point to notes of the source that are not given here.

On to `COc1ccc2c(c1)c(CC(=O)O)c(C)n2C(=O)c1ccc(Cl)cc1` [indometacin, reference compound], for which the “Inflammation resolution rate (%)” value in data set [1] (60 μM) is given as 88*** %; in data set [2] (60 μM) it was 62%; in data set [3] (60 μM), 72%.
Regarding `C[C@]12C=CC(=O)C=C1CC[C@@H]1[C@@H]2C(=O)C[C@@]2(C)[C@H]1CC[C@]2(O)C(=O)CO` [prednisone, reference compound], in data set [4], the intestinal histopathology result was “intestinal mucosal histology was improved significantly”.

B1: M-type SOD: mutant high temperature resistant superoxide dismutase, amino acid sequence SEQ ID NO. 4; position 202 mutated from lysine to asparagine versus W-type SOD (protein)
chain: MPYPFKLPDLGYPYEALEPHIDAKTMEIHHQKHHGAYVTNLNAALEKYPYLHGVEVEVLLRHLAALPQDIQTAVRNNGGGHLNHSLFWRLLTPGGAKEPVGELKKAIDEQFGGFQALKEKLTQAAMGRFGSGWAWLVKDPFGKLHVLSTPNQDNPVMEGFTPIVGIDVWEHAYYLKYQNRRADYLQAIWNVLNWDVAEEFFNKA
modifications: amino acid sequence of M-type SOD
notes: position 202 mutated from lysine to asparagine versus W-type SOD
Take B1: the “toxic effects on zebrafish” value in data set [5] is given as “no toxic effects”. For the same molecule, the “numbers of neutrophils (mean ± SE)” value in data set [1] (model control 15.5) was 14.9 and 14.9 ± 0.6; in data set [3] (15 μg/mL) it was 17.7 and 17.7 ± 1.4; in data set [3] (50 μg/mL) it was 14.9 and 14.9 ± 1.0. Further, the “Inflammation resolution rate (%)” value is on record as 4% in data set [1] (15 μg/mL); 24% in data set [1] (50 μg/mL); 47% in data set [1] (150 μg/mL); 77% in [1] (450 μg/mL); 91% in [1] (1350 μg/mL); 92% in [1] (2000 μg/mL). Also, the “Inflammation resolution rate (%)” value is reported as 29% in [2] (150 μg/mL); 51% in data set [2] (450 μg/mL); 58% in [2] (1350 μg/mL); 59% in data set [2] (2000 μg/mL); 0% in [3] (15 μg/mL); 16% in data set [3] (50 μg/mL). Further, the “Inflammation resolution rate (%)” value in data set [3] (150 μg/mL) worked out at 31%; in [3] (450 μg/mL) it was 34%; in [3] (1350 μg/mL), 58%; in data set [3] (2000 μg/mL), 65%. The “thermal stability (remaining enzyme activity)” value in data set [6] is on record as “maintained extremely high stability within a wider temperature range”. In addition, the activity kept in data set [7] is reported as 97%. Besides, the “intestinal lumen area (mean ± SE)” value amounted to 153560 ± 6080 in [8] (15 μg/mL in water for fish), 142595 ± 3167 in [8] (50 μg/mL in water for fish) and 141259 ± 5359 in [8] (150 μg/mL in water for fish). In addition, the “Death rate (%)” value in [9] (150 μg/mL) worked out at 0%; in data set [9] (200 μg/mL), 20%; in [9] (330 μg/mL), 100%; in data set [9] (1000 μg/mL), 100%; in [9] (3000 μg/mL) it was 100%. Moreover, the “Death (tail)” value in [9] (150 μg/mL) is recorded as 0 tail; in data set [9] (200 μg/mL) it was 6 tail; in data set [9] (330 μg/mL), 30 tail; in [9] (1000 μg/mL), 30 tail; in data set [9] (3000 μg/mL), 30 tail. Besides, the MNLC in [9] (zebrafish, treatment for 48 hours) was 150 µg/mL. The “number of neutrophils (mean ± SE)” value is 6.8 ± 0.88 in data set [10] (15 μg/mL), 5.6 ± 0.45 in [10] (50 μg/mL) and 3.7 ± 0.53 in [10] (150 μg/mL). For the same molecule, the “resistance against pepsin degradation” value in [11] was “significantly better than ordinary SOD”. Also, the intestinal histopathology entry in data set [4] (50 μg/mL and 150 μg/mL) is listed as “the inflammation of intestinal mucosa was significantly improved”.

(Values after US10391048B2, “Recombinant high-stability superoxide dismutase and application thereof” (Hangzhou Redox Pharmatech Co., Ltd., priority 2016, dated 2019).)
